Results published in EP2295560A1, “Directed evolution of arginine deiminase for increased activity at physiological pH” (priority 2009, dated 2011).

Test system: N=C(N)NCCC[C@H](N)C(=O)O
Test: Determination of kcat and Km (citrulline colorimetric assay, purified enzyme)
Assay type: biochemical, Pseudomonas plecoglossicida CGMCC2039
Details: 0.5 M phosphate buffer, 0.2 mM to 10 mM of arginine
Method: The kcat and Km values were determined from initial velocity data measured as a function of substrate concentration. Enzyme reaction was carried out at 37°C in a water bath. After 10 min preincubation at 37"C, the enzyme reaction was initiated by addition of purified enzyme (50 µl, 0.2-0.5 µM) to the substrate solution (200 µl, 0.2 mM to 10 mM of arginine, 0.5 M phosphate buffer, pH 7.4) in deep well plates. The reaction mixture was incubated (37°C) and every two minutes reaction mixture (30 µl) of each well was transferred to acid-ferric solution (30 µl) to stop the enzyme reaction. The color development was subsequently performed in 96-well PCR plate. Ferric-acid solution (90 µl) and DAM-TSC solution (15 µl) were added to each well. The 96-well PCR plate was then incubated (70°C, 30 min) in thermal cycler (Eppendorf Mastercyler gradient) for color development, followed by incubation in ice water to stop color development. Absorbance was measured at 530 nm using a microtiter plate reader (SPECTROstar Omega, BMG LABTECH, Offenburg, Germany). The initial velocity data obtained were fitted to the equation v = Vmax[S]/([S] + Km) (where v is the initial velocity, Vmax the maximum velocity, [S] the substrate concentration, and Km the Michaelis constant) using GraphPad Prism software (GraphPad software, San Diego, CA, USA). The kcat was calculated from the ratio of Vmax, and enzyme concentration.
For kinetic characterization of ADI variants the citrulline production was maintained between 0.2-0.8 mM. […] Figure 4 summarizes the kcat and Km values of wild type PpADI, identified variants M1 […] and M2 (K5T D44E H404R) which were expressed in shaking flasks cultures and purified using a two step procedure (anion exchange follows by gel filtration). Both variants M1 and M2 show an increase in kcat and Km for citrulline production at pH 7.4.

## Pseudomonas plecoglossicida arginine deiminase (PpADI) variant M1 (H404R) (Pseudomonas plecoglossicida; H404R)
other: M1, pH 7.4, 37°C
  Km: 1200 µM

## Pseudomonas plecoglossicida arginine deiminase (PpADI), wild type, SEQ ID No. 1 (Pseudomonas plecoglossicida)
other: wild type PpADI, pH 7.4, 37°C
  Km: 700 µM

## Pseudomonas plecoglossicida arginine deiminase (PpADI) variant M2 (K5T D44E H404R) (Pseudomonas plecoglossicida; D44E/H404R/K5T)
other: M2, pH 7.4, 37°C
  Km: 2500 µM
